Data as given in patent US7119182B1 (The Regents of the University of California, priority 1991, dated 2006).
Square brackets hold non-standard residues; d marks the D form. Peptide text beside a SMILES is read from it.

Legend:
thrombin = thrombin (Homo sapiens, UniProt P00734); assay: Inhibition of thrombin-induced platelet activation (ATP secretion) by thrombin inhibitor peptides; assay type: cell-based
Experimental: (§1) About 20 μl Chromolume® reagent (Chronolog Corporation, Havertown, Pa.) is added. In addition to measuring aggregation, ATP secretion is assessed. […] Platelet ATP secretion is measured in a lumiaggregometer as luminescence signal. […] Preincubation is not necessary for testing agonists or antagonists which interact directly with the receptor.
Three antagonist peptides of the invention […] (LDPRP peptide) (SEQ ID NO:74), F^†[…] (F^†PRP peptide) (SEQ ID NO:224) and […] (shortened LDPRP peptide) (SEQ ID NO:190), were tested for their ability to inhibit thrombin-induced platelet activation. […] The mixtures were added in a total volume of 20 μl phosphate buffered saline to 480 μl of platelets prepared and suspended as described in the description under the heading “Assays” hereinabove. Various concentrations of the candidate peptides were used.

washed human platelets [1] = biological target: T1, washed human platelets (Homo sapiens, UniProt P25116)
T1 sequence (P25116 42-425): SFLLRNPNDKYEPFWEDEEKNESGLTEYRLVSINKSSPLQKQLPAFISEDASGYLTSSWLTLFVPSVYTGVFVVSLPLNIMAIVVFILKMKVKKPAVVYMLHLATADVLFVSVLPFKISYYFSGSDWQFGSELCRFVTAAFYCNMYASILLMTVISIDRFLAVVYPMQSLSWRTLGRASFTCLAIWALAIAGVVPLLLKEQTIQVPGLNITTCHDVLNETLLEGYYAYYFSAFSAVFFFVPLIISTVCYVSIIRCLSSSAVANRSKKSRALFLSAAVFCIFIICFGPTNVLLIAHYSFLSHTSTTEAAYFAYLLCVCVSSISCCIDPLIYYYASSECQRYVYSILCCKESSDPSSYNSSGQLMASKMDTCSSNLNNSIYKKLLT
Experimental: Washed platelets are suspended in modified Tyrode's buffer, pH 7.4 with 2 mM magnesium and 1 mM calcium at a concentration of 10^8 platelets/ml.
Using the platelet aggregation assay described above, the concentration of various peptides required to elicit a 50% maximal aggregation was determined.

washed human platelets [2] = biological target: T1, washed human platelets; assay: Platelet ATP secretion in response to agonist peptide; assay type: cell-based
Experimental: as §1
Washed human platelets were prepared as described by Baenzinger, N. G., Meth Enz (1974) 31:149–155; and Charo, I. F., et al., J Clin Invest (1977) 63:866–873. Agonist-induced responses were assessed as described above.
Platelet ATP secretion in response to the indicated final concentrations of “new amino-terminal” peptide was also followed by lumiaggregometry, and the results are shown in FIG. 4.
The data shown in FIG. 4 are raw tracings representative of aggregation or secretion responses obtained in triplicate for each agonist concentration, and are representative of results obtained in more than five separate experiments.

[3] = biological target: T2, wild-type thrombin receptor (Homo sapiens, UniProt P25116, C364S/L238V); assay: ^45Ca release by oocytes expressing wild-type thrombin receptor cRNA; assay type: cell-based; settings: control peptide added at 100 μM
T2 construct: expressed in transfected cells; host or cells: Xenopus laevis oocytes microinjected with cRNA
T2 sequence (P25116 22-425 L238V/C364S): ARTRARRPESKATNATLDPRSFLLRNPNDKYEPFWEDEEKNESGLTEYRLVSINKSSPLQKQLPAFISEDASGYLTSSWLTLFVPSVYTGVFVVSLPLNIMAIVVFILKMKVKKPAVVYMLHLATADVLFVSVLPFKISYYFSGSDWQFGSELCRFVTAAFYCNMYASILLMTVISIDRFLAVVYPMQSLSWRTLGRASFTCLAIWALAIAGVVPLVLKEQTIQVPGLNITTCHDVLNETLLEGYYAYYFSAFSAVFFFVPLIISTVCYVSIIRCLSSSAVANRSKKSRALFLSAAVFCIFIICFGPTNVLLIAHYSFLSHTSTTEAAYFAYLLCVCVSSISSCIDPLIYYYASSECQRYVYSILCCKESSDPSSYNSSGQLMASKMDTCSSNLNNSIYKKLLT
Experimental: (§2) Briefly, intracellular calcium pools are labeled by incubating groups of 30 oocytes in 300 μl calcium-free MBSH containing 50 μCi ^45CaCl2 (10–40 mCi/mg Ca; Amersham) for 4 hours at RT. The labeled oocytes are washed, then incubated in MBSH II without antibiotics for 90 minutes. Groups of 5 oocytes are selected and placed in individual wells in a 24-well tissue culture plate (Falcon 3047) containing 0.5 ml/well MBSH II without antibiotics. This medium is removed and replaced with fresh medium every 10 minutes; the harvested medium is analyzed by scintillation counting to determine ^45Ca released by the oocytes during each 10-minute incubation. The 10-minute incubations are continued until a stable baseline of ^45Ca release per unit time is achieved. Two additional 10-minute collections are obtained, then test medium including agonist is added and agonist-induced ^45Ca release determined.
(§3) The control peptide […] (FSLL peptide) (SEQ ID NO:107) was added at 100 μM and elicited no response.

CCL-39 cells = assay: Mitogenic effect, tritiated thymidine incorporation in CCL-39 fibroblasts; assay type: cell-based, hamster; settings: 100 μM, 48 hours, quiescent CCL-39 in serum-free medium; FIG. 5
Experimental: The fibroblast cell line CCL-39 was made quiescent in serum-free medium and then treated for 48 hours with the candidate agonist in the presence of tritiated thymidine. The incorporation of label into DNA was then determined as TCA-insoluble activity, shown as cpm in FIG. 5 using standard techniques. The data shown in the figure represent the mean of six replicate determinations plus or minus 95% confidence.

uninjected oocytes = assay: Agonist activity on uninjected oocytes; assay type: cell-based, Xenopus laevis; settings: uninjected oocytes (not shown)
Experimental: as §2, §3
The agonist SFLL peptide has no activity on uninjected oocytes (not shown). Qualitatively identical results were obtained when agonist-induced inward current in voltage-clamped oocytes was used as an endpoint rather than agonist-induced ^45Ca release.

[4] = concentrations as high as 200 μM (not shown)

With `CC(C)C[C@H](NC(=O)[C@H](CC(C)C)NC(=O)[C@H](Cc1ccccc1)NC(=O)[C@@H]1CCCN1C(=O)[C@H](CCCNC(=N)N)NC(=O)[C@@H]1CCCN1C(=O)[C@H](N)Cc1ccccc1)C(=O)N[C@@H](CCCNC(=N)N)C(=O)N[C@@H](CC(N)=O)C(=O)N1CCC[C@H]1C(=O)N[C@@H](CC(N)=O)C(=O)N[C@@H](CC(=O)O)C(=O)N[C@@H](CCCCN)C(=O)N[C@@H](Cc1ccc(O)cc1)C(=O)N[C@@H](CCC(=O)O)C(=O)N1CCC[C@H]1C(=O)N[C@@H](Cc1ccccc1)C(=O)N[C@@H](Cc1c[nH]c2ccccc12)C(=O)N[C@@H](CCC(=O)O)C(=O)N[C@@H](CC(=O)O)C(=O)N[C@@H](CCC(=O)O)C(=O)N[C@@H](CCC(=O)O)C(=O)N[C@@H](CCCCN)C(=O)N[C@@H](CC(N)=O)C(=O)N[C@@H](CCC(=O)O)C(=O)N[C@@H](CO)C(=O)O` [F^†PRP peptide] (H-[dF]PRPFLLRNPNDKYEPFWEDEEKNES-OH) the IC50 (thrombin) was about 200 nM.
In the case of “FSLLRNPNDKYEPF [FSLL peptide, control peptide, agonist with the N-terminus scrambled to FS]”, the “Platelet aggregation activity of control peptides” value (washed human platelets [1]; [4]) is reported as “without activity”, the “Platelet ATP secretion activity of control peptides” value (washed human platelets [2]; [4]) is reported as “without activity” and the “peptide-induced ^45Ca release response” value [3] is reported as “no response”.
With SFLLRNPNDKYEPF [“SFLL” peptide] the “Platelet aggregation compared with thrombin” value (washed human platelets [1]; peptide at 100 μM, FIG. 4) was “comparably active to 20 μM thrombin”, the “Platelet ATP secretion compared with thrombin” value (washed human platelets [2]; peptide at 100 μM, FIG. 4) was “comparably active to 20 μM thrombin” and the “mitogenic effect (tritiated thymidine incorporation into DNA)” value (CCL-39 cells) was “significant stimulation of growth”. The “agonist activity on uninjected oocytes” value (uninjected oocytes) was “no activity”.
